Experimental data from patent US20240409645A1 (DUALYX, published 2024).
Positions count from the first letter of the chain named.

B1: FJ1427 P035MP02A10 (VHH)
VHH: QLQLVESGGGLVQTGTSLRLSCAASGHTSRINAMGWFRQFPGKEREFVAAISRNGGSTVYVDSVKGRFTISRDNAKSTVYLQMNSLKPEDTAVYYCTATDAVGWTTRWMTADFGFWGQGTQVTVSS
notes: soluble VHH in periplasmic extract; also called clone nr
B2: FJ1427_P035MP02A01 (VHH)
VHH: QVQLVESGGGLVQTGGSLRLSCVVSGSHFISDVMGWYRQVPGKQRELVADMADGGSAKYGDSVKGRFTILRDSVKNTVYLQMSSLNPEDTGVYYCKAGLWITGRHSDYWGQGTQVTVSS
notes: soluble VHH in periplasmic extract; also called clone nr; 97
B3: FJ1427_P035MP02G01 (VHH)
VHH: B2 VHH with V23A, H28R, G60A, T68S, V74A, N86K, V92I, T102A
notes: as for B1
B4: FJ1427 P035MP02G02 (VHH)
VHH: B2 VHH with T14P, V23A, V24A, A57V, Y79T, S106F, T113I, S118T
notes: as for B1
B5: FJ1427_P035MP02B02 (VHH)
VHH: B2 VHH with Q1E, G10T, L70V, T102K, S118T
notes: as for B1
B6: FJ1427_P035MP06F05 (VHH)
VHH: QVQLVESGGGLVQTGDSLRLSCAASGRSLDTTYIAWFRQAPGKERDFLAYISPRFSHTWYADSVKGRFTISRNIAKRTVDLEMNSLEPEDTAVYYCAAREHSGSTAWEHYDHWGQGTQVTVSS
notes: soluble VHH in periplasmic extract; also called 25-MP06F05; clone nr
B7: FJ1427_P035MP02F08 (VHH)
VHH: QVQLVESGGGLVQAGGSLRLSCAASGSIFSLNTMGWFRQAPGKEREFVAAISRSGGSATYGDSVKGRFTISTNNAKTTVYLQMNSLKPDDTAVYSCAASAAVGWTTRWSTIDFDSWGQGTQVTVSS
notes: as for B1
B8: FJ1427_P035MP02H01 (VHH)
VHH: QVQLVESGGGLVQPGGSLGLSCAASGFTFDNYAMSWVRQAPGKGLEWVSSITGAGRGTHYADSVKGRFTISRDNAKNTLYLQMNSLKPEDTAVYYCAKYSSSTYYPPTPARGTDYRGPGTQVTVSS
notes: as for B1
B9: FJ1427 P035MP02C08 (VHH)
VHH: EVQLVESGGGLVQAGGSLRLSCAASGSTFSRQPMYWFRQAPGKEREFVAAITWSGRGTLYADSVEGRFTISRDNAKNTVYLQMNSLRPDDTAAYYCAAGPYGDAAYRHGRIDSWGQGTQVTVSS
notes: as for B1
B10: FJ1427_P035MP02H08 (VHH)
VHH: EVQLVESGGGLVQAGDSLRISCAASGRIFSNYAMGWFRQAPGKETEFVAGITHLTSTTHYADSVKGRFTISRDNAKNTMHLQMNNLKPEDTALYYCAADRNIKITADWSYWGQGTQVTVAS
notes: soluble VHH in periplasmic extract; also called clone nr; 160
B11: FJ1427 P035MP02D11 (VHH)
VHH: B10 VHH with E1Q, V5Q
notes: soluble VHH in periplasmic extract; also called clone nr; 180
B12: FJ1427_P035MP03F08 (VHH)
VHH: EVQLVESGGGLVQTGGSLRLSCAASGGTFSRDAMAWFRQVPGKEREFVALISWSGATTNYADSVKGRFAISRDNGKNTVYLQMNRLKPADTAIYYCAADRRPMGSRSYFEPTEYDDWGQGTQVTVSS
notes: soluble VHH in periplasmic extract; also called 19-MP03F08; clone nr
B13: FJ1427 P035MP02E11 (VHH)
VHH: QVQLQESGGGLVQAGGSLRLSCAASGRTFSNYVMAWFRQAPGKEREFVGAITQTGRGTFYADSVEGRFTISRINDKNTVYLQMNSLKPEDTAVYYCSAPRSGRAGTRNQMDYEYWGQGTQVTVSS
notes: as for B1
B14: FJ1427_P035MP03C03 (VHH)
VHH: QVQLVESGGGLVQPGGSLRLSCAISGGTLDSYGIGWVRQAPGKQREGVSCMSRSDDRTYYADSVKGRFTISKDSAKNTVYLQMTSLKPEDTAVYYCAAVDAYGCSLVQPTTYDFWGLGTQVTVSS
notes: soluble VHH in periplasmic extract; also called 18-MP03C03; clone nr
B15: FJ1427 P035MP02D02 (VHH)
VHH: QVQLVESGGGLVQVGGSLSVSCAASGRSFDSITMAYFRQAPGNEREFIAGINFSGSRTAYGDSVKGRFTISRDNAKNTVFLQMNSLNPEDTAVYYCAASPRGFYGPGHALYDYWGQGTQVTVSS
notes: as for B1
B16: FJ1427 P035MP02D10 (VHH)
VHH: EVQLVESGGGLVQAGGSLRLSCAASGRTFSSDAKAWFRQAPGKEREFVAAITWAGRGTDYADSVKDRFTITRDNAKNMVYLQMSSLKPEDTAVYYCALNPTGVIGPGFRNSNRYDYWGQGTQVTVAS
notes: as for B1
B17: FJ1427_P035MP02C09 (VHH)
VHH: QVQLQESGGGLVQAGGSLRLSCVASGSVSSINGMAWYRQGADNQRVLVAAISRVGNTAYGDSVKGRFTISRQNARNTVYLQMNSLKPEDTAVYYCNADSWGGDDYWGQGTQVTVSS
notes: soluble VHH in periplasmic extract; also called 17-MP02C09; clone nr
B18: FJ1427 P035MP06E05 (VHH)
VHH: QVQLVESGGELVQGGASLRLSCAASGRTFSNANMAWFRQAPEKEREFVALITWSSGSTLYADSVKGRFTISRDNARKMVYLQMNSLKPEDTAVYYCAADGPPYSGTYYRYDTYDYWGQGTQVTVSS
notes: soluble VHH in periplasmic extract; also called 24-MP06E05; clone nr; 517
B19: FJ1427_P035MP03F10 (VHH)
VHH: EVQLVESGGGLVQAGGSLRLSCAASGRDFSSYAMGWFRQAPGKEREFVVAITWTKRSTDFPDSVKGRFTISRDNAKNTVYLDMNSLKPEDTAVYYCASARGLPVTPLGDIIYWGEGTLVTVSS
notes: soluble VHH in periplasmic extract; also called 20-MP03F10; clone nr; 270
B20: FJ1427_P035MP03F12 (VHH)
VHH: EVQLVESGGGLVQAGGSLRLSCAASGSIFSINAMAWFRQVPGMERELVAAISRDGGASVYRDSVKGRFTISRDNSKNTVYLQMNTLKPEDTAIYVCAATRAIGWTARWITTDFDFWGQGTQVTVSS
notes: soluble VHH in periplasmic extract; also called 22-MP03F12; clone nr
B21: FJ1427_P035MP06A07 (VHH)
VHH: QVQLQESGGGLVQAGGSLRLSCAASGDVFVRYTMAWFRQAPGKEREFVASVTDSGRTTEYVDSVKGRFTVSRDNAKNTAYLQMNNLKPEDTAIYYCAANTDYFQIRSLDLNTWGQGTQVTVSS
notes: soluble VHH in periplasmic extract; also called 26-MP06A07; clone nr
B22: FJ1427_P035MP06F03 (VHH)
VHH: B21 VHH with Q5V, A24V, E59D, D62H, A79V, I93V, R106K, L110A
notes: soluble VHH in periplasmic extract; also called 23-MP06F03; clone nr; 502

molecular target: T1, human IL-2Rβ (human, UniProt P14784 27-240, limits assumed); assay: SPR, P.E. off-rate
T1 construct: recombinant protein, coated or immobilised; also called hu IL-2R; IL-2R beta
T1 sequence: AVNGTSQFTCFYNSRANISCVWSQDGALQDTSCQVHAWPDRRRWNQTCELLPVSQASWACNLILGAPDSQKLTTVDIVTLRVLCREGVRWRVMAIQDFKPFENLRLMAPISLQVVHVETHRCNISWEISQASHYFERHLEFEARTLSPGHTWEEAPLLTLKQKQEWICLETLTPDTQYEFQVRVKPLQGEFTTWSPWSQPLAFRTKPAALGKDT
Summary of the method: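 CM5 chip, amine coupling (acetate buffer), ~2500 RU receptor. VHH P.E. flowed at 30 uL/min; off-rate read over 120 s.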

| Binder | koff [s⁻¹] |
| --- | --- |
| B1 | 0.00226 |
| B2 | 0.00023 |
| B3 | 0.000368 |
| B4 | 0.000112 |
| B5 | 0.000164 |
| B6 | 0.000836 |
| B7 | 0.00153 |
| B8 | 0.00106 |
| B9 | 0.00333 |
| B10 | 0.000731 |
| B11 | 0.000833 |
| B12 | 0.000296 |
| B13 | 0.00188 |
| B14 | 0.000594 |
| B15 | 0.000529 |
| B16 | 0.00109 |
| B17 | 0.000848 |
| B18 | 0.000471 |
| B19 | 0.000595 |
| B20 | 0.000419 |
| B21 | 0.000363 |
| B22 | 0.00105 |

molecular target: T1, human IL-2Rβ; assay: P.E. ELISA, coated protein
Summary of the method: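 Direct-coat ELISA: receptor protein o/n 4° C → 4% Marvel/PBS block 1 h → P.E. 1:5 in 1% Marvel/PBS, 1 h → OD450 vs neg. controls.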

| Binder | P.E. binding ELISA OD [OD450 nm] |
| --- | --- |
| B1 | 0.359 |
| B2 | 0.311 |
| B3 | 0.169 |
| B4 | 0.177 |
| B5 | 0.343 |
| B6 | 0.159 |
| B7 | 0.614 |
| B8 | 0.487 |
| B9 | 0.254 |
| B10 | 0.885 |
| B11 | 0.463 |
| B12 | 0.245 |
| B13 | 0.529 |
| B14 | 0.405 |
| B15 | 0.831 |
| B16 | 0.557 |
| B17 | 1.21 |
| B18 | 0.355 |
| B19 | 0.497 |
| B20 | 0.781 |
| B21 | 1.03 |
| B22 | 0.54 |
